B1: Rab32FL:GDP (full-length Rab32, residues 1-225, GDP-bound) (natural protein)
chain: MAGGGAGDPGLGAAAAPAPETREHLFKVLVIGELGVGKTSIIKRYVHQLFSQHYRATIGVDFALKVLNWDSRTLVRLQLWDIAGQERFGNMTRVYYKEAVGAFVVFDISRSSTFEAVLKWKSDLDSKVHLPNGSPIPAVLLANKCDQNKDSSQSPSQVDQFCKEHGFAGWFETSAKDNINIEEAARFLVEKILVNHQSFPNEENDVDKIKLDQETLRAENKSQCC
notes: also called Rab32:GDP; Rab32_(1-225); source: E. coli BL21(DE3)-RIL, purified (Ni-IMAC, TEV cleavage, second IMAC, SEC)
B4: GtgE_(FL,C45A) (full-length catalytically inactive GtgE, residues 1-228) (enzyme)
chain: MLRHIQNSLGSVYRSNTATPQGQIIHHRNFQSQFDTTGNTLYNNAWVCSLNVIKSRDGNNYSALEDITSDNQAFNNILEGIDIIECENLLKEMNVQKIPESSLFTNIKEALQAEVFNSTVEDDFESFISYELQNHGPLMLIRPSLGSECLHAECIVGYDSEVKKVLIYDSMNTSPEWQSNIDVYDKLTLAFNDKYKNEDCSICGLYYDGVYEPKPLHSSSWKDWCTIL
notes: source: E. coli BL21(DE3)-RIL, purified (Ni-IMAC, TEV cleavage, second IMAC)

What was measured:
[1] = biological target: T1, Rab32_1-225:GDP:GtgE1-228,C45A complex (Homo sapiens, UniProt Q13637); test: X-ray crystallography, […] Å; type: binding; settings: nucleotide site of Rab32; crystals from 0.05 M imidazole pH 8, 20% PEG 6000
T1 construct: gene RAB32; full-length Rab32 and full-length GtgE C45A, E. coli, His6-MBP tag cut by TEV, reductively lysine-methylated complex, 1:1 heterodimer; with Cysteine protease GtgE (Salmonella enterica serovar Typhimurium SL1344)
T1 sequence (Q6EAT3 entry or part of it C45A, one chain of several): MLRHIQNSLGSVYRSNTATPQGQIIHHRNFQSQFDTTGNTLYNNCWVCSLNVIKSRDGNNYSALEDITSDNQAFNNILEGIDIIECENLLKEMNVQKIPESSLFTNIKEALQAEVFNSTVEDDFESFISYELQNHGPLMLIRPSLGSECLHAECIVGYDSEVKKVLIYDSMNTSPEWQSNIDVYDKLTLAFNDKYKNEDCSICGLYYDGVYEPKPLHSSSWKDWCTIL

Rab32FL = biological target: T2, Rab32FL (Homo sapiens, UniProt Q13637); test: intrinsic GTP hydrolysis, ion-pairing RP-HPLC of nucleotide content; type: biochemical; settings: intrinsic GTPase, no GAP; single-exponential fit
T2 construct: gene RAB32; full length, E. coli, N-terminal His6-MBP tag cut by TEV, monomer by SEC
T2 sequence (Q13637 1-225): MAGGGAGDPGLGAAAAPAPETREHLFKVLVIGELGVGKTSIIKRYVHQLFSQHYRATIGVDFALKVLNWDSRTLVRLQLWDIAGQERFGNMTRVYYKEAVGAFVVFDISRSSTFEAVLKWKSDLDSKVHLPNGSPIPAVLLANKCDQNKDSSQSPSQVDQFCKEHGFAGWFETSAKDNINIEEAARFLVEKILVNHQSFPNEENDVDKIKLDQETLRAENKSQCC

[2] = biological target: B4; test: ITC; settings: both partners purified
[3] = biological target: B4; test: AUC; settings: both partners purified
[4] = biological target: T3, GtgE_(21-214,C45A) (truncated inactive GtgE, lysine-methylated, for crystallization) (Salmonella enterica serovar Typhimurium …, UniProt Q6EAT3 21-214, C45A, surface exposed lysine residues reductively methylated); test: crystal structure; settings: both partners purified
T3 construct: source: E. coli BL21(DE3)-RIL, purified; complex reductively methylated
T3 sequence: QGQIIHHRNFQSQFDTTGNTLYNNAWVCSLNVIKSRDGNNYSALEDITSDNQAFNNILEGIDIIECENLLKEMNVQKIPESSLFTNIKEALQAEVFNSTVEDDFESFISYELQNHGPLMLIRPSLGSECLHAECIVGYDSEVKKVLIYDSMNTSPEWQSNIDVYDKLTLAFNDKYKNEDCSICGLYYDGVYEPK

[5] = biological target: B1; test: ITC; settings: both partners purified

Nc1nc2c(ncn2[C@@H]2O[C@H](COP(=O)(O)OP(=O)(O)O)[C@@H](O)[C@H]2O)c(=O)[nH]1 [GDP]
X-ray crystallography, 2.9 Å [1]: The full-length Rab32:GDP:GtgEC45A structure was solved by molecular replacement

Nc1nc2c(ncn2[C@@H]2O[C@H](COP(=O)(O)OP(=O)(O)OP(=O)(O)O)[C@@H](O)[C@H]2O)c(=O)[nH]1 [GTP]
k hydr (Rab32FL): Rab32 has an exceptionally slow intrinsic GTPase-activity with an hydrolysis constant determined

B1
Kd [2]: 96 nM

B2: Rab32FL-Atto488 (Rab32:GDP labelled at thiol groups with Atto488-Maleimide) (natural protein)
chain: MAGGGAGDPGLGAAAAPAPETREHLFKVLVIGELGVGKTSIIKRYVHQLFSQHYRATIGVDFALKVLNWDSRTLVRLQLWDIAGQERFGNMTRVYYKEAVGAFVVFDISRSSTFEAVLKWKSDLDSKVHLPNGSPIPAVLLANKCDQNKDSSQSPSQVDQFCKEHGFAGWFETSAKDNINIEEAARFLVEKILVNHQSFPNEENDVDKIKLDQETLRAENKSQCC
modifications: thiol groups covalently labeled with Atto488-Maleimide
notes: also called Rab32:GDP_(fluor.); fluorescently labeled Rab32FL:GDP; source: E. coli BL21(DE3)-RIL, purified, then labelled with Atto488-Maleimide
Kd [3]: 118 nM

B3: Rab32_(18-201):GDP (truncated Rab32, lysine-methylated, for crystallization) (domain or fragment)
chain: APETREHLFKVLVIGELGVGKTSIIKRYVHQLFSQHYRATIGVDFALKVLNWDSRTLVRLQLWDIAGQERFGNMTRVYYKEAVGAFVVFDISRSSTFEAVLKWKSDLDSKVHLPNGSPIPAVLLANKCDQNKDSSQSPSQVDQFCKEHGFAGWFETSAKDNINIEEAARFLVEKILVNHQSFPN
notes: source: E. coli BL21(DE3)-RIL, purified; complex reductively methylated
binding result [4]: binds

B4
stoichiometry N [5]: 1

— publication PMC5752668 (Nature Communications, 2018)
